Assay results published in patent US20060148057A1, “Thioredoxin mutants and uses thereof” (priority 2002, published 2006).

Key:
BAEC [1] = test: GFP co-transfection killing assay, ASK1-induced EC death; type: cell-based, Bovine; settings: for inhibitory effect on ASK1-induced apoptosis under TNF treatment: TNF 10 ng/ml
Procedure: Trx inhibits ASK1-induced JNK activation and caspase 3 activity. BAEC were co-transfected with ASK1 and Trx constructs in 1:1 ratio as indicated: control vector alone (Ctrl), ASK1 with VC, Trx-WT, Trx-CS, Trx-C32S or Trx-C35S. 24 h post-transfection, cell lysates were used to examine JNK and caspase 3 activity. […] JNK activity was measured by an in vitro kinase assay GST-c-Jun as a substrate. Trx expression was determined by Western blot anti-Flag. […] Caspase 3 activity was measured by Sigma's Caspase 3 Fluorometric Assay Kit in the absence or presence of caspase 3 inhibitor Ac-DEVD-CHO. Assay was performed as duplicates. Caspase 3 activities were normalized with the Ctrl group (as zero). Data are presented from mean of two independent experiments. […] 6-well BAEC were co-transfected with a GFP expression construct and ASK1/Trx constructs as indicated (1 μg GFP, 1 μg ASK1, 1 μg Trx, total DNA was kept to 3 μg by adding VC): control vector alone (Ctrl), ASK1 with VC, Trx-WT, Trx-CS, Trx-C32S or Trx-C35S. Cells were cultured in the presence or absence of TNF (10 ng/ml). 48 h after transfection, GFP-positive cells were counted as survival cells. The survival rate is shown (Ctrl group as 100%). Data are presented from mean of four independent experiments. […] BAEC were transfetced as in FIG. 6C. 6-well BAEC were transfetced with GFP (1 μg) and Trx -expressing construct (1 μg each) as indicated. 24 h after transfection, cells were either left untreated or treated with TNF (10 ng/ml) plus CHX (10 μg/ml) for 24 h. GFP-positive cells were counted as survival cells. […] Data are presented from mean of four independent experiments.
(§1) Quantitation of cell killing: Cell killing assay was performed as described previously with a modification (Slowik M R et al. Evidence that tumor necrosis factor triggers apoptosis in human endothelial cells by interleukin-1-converting enzyme-like protease- dependent and -independent pathways. Lab Invest. 77:257-67 (1997)). EC were transfected with a combination of GFP reporter plasmid and the control vector or experimental expression plasmids for ASK1 and Trx at 1:1 ratio as indicated. GFP-positive cells were visualized under a fluorescence microscope and counted as number of survival cells.
ASK1-induced EC death was measured by a GFP co-transfection killing assay as previously described with minor modifications (Slowik M R Evidence that tumor necrosis factor triggers apoptosis in human endothelial cells by interleukin-1-converting enzyme-like protease- dependent and -independent pathways. Lab Invest. 77:257-67 (1997)). Overexpression of ASK1 in EC (BAEC or HUVEC) induced 60% cell death at 48 h post-transfection, i.e., 40% of GFP-positive (survival) EC compared to the control cells (Ctrl as 100% survival, FIG. 6C).

BAEC [2] = test: GFP killing assay, TNF+CHX-induced EC death; type: cell-based, Bovine; settings: TNF 10 ng/ml plus CHX 10 μg/ml for 24 h; vector control 25% survival
Procedure: Trx inhibits ASK1-induced JNK activation and caspase 3 activity. BAEC were co-transfected with ASK1 and Trx constructs in 1:1 ratio as indicated: control vector alone (Ctrl), ASK1 with VC, Trx-WT, Trx-CS, Trx-C32S or Trx-C35S. 24 h post-transfection, cell lysates were used to examine JNK and caspase 3 activity. […] JNK activity was measured by an in vitro kinase assay GST-c-Jun as a substrate. Trx expression was determined by Western blot anti-Flag. […] Caspase 3 activity was measured by Sigma's Caspase 3 Fluorometric Assay Kit in the absence or presence of caspase 3 inhibitor Ac-DEVD-CHO. Assay was performed as duplicates. Caspase 3 activities were normalized with the Ctrl group (as zero). Data are presented from mean of two independent experiments. […] 48 h after transfection, GFP-positive cells were counted as survival cells. […] GFP-positive cells were counted as survival cells. […]
as §1, with “EC were transfected with a combination of GFP reporter plasmid and the control vector or experimental expression plasmids for ASK1 and Trx at 1:1 ratio as indicated.” left out, “cells. […]” for “cells.”

| Molecule | ASK1-ΔN-induced apoptosis (BAEC [1]) | inhibitory effect on ASK1-induced apoptosis under TNF treatment (BAEC [1]) | survival after TNF+CHX (GFP-positive cells, Ctrl as 100%) (BAEC [2]) |
| --- | --- | --- | --- |
| thioredoxin (protein, Flag tag or GST fusion, Flag-tagged or GST fusion) MVKQIESKTAFQEALDAAGDKLVVVDFSATWCGPCKMIKPFFHSLSEKYSNVIFLEVDVDDCQDVASECEVKCMPTFQFFKKGQKVGEFSGANKEKLEATINELV | did not inhibit | diminished the inhibitory effect | – |
| Trx-C35S: C35S single mutant of Trx at the catalytic site, SEQ ID NO:3 (protein) MVKQIESKTAFQEALDAAGDKLVVVDFSATWCGPSKMIKPFFHSLSEKYSNVIFLEVDVDDCQDVASECEVKCMPTFQFFKKGQKVGEFSGANKEKLEATINELV | – | retained their inhibitory effects | 100±12% |
| Trx-C32S: C32S single mutant of Trx at the catalytic site, SEQ ID NO:2 (protein) MVKQIESKTAFQEALDAAGDKLVVVDFSATWSGPCKMIKPFFHSLSEKYSNVIFLEVDVDDCQDVASECEVKCMPTFQFFKKGQKVGEFSGANKEKLEATINELV | – | retained their inhibitory effects | – |
